Earlier results as cited in patent publication US20250333489A1 (ANDREMACON S.R.L., priority 2021, published 2025).

Target: T1, EphB4 (Homo sapiens, UniProt P54760)
T1 sequence (P54760 16-987): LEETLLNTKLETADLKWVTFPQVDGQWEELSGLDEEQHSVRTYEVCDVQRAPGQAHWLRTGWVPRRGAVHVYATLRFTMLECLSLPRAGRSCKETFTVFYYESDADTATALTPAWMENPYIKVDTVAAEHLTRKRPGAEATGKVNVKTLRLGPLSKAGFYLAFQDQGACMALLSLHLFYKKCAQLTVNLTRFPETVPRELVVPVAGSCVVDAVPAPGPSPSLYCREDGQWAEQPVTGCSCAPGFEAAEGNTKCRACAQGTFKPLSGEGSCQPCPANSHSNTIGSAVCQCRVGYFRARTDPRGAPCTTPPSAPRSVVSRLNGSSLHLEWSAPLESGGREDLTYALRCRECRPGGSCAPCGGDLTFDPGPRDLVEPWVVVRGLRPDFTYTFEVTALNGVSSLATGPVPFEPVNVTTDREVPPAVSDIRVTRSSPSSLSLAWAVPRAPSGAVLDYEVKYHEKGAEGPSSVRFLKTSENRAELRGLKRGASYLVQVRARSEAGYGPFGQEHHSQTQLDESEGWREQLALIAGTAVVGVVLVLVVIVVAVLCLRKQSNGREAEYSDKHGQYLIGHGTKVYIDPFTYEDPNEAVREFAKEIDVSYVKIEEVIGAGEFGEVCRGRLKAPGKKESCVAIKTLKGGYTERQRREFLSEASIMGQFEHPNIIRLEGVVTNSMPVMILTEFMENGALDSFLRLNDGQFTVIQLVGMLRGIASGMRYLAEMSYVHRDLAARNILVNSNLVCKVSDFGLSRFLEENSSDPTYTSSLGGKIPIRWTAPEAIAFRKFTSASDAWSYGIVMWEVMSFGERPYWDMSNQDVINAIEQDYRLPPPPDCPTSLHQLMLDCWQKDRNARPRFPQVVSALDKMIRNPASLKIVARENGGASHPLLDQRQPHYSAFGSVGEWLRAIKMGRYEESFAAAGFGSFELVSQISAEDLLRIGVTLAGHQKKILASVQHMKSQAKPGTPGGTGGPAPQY
Conditions: read-out: binding affinity of Epo for EphB4 (KD)

Substance: Epo: 30.4 kDa glycoprotein produced and secreted mainly by the kidneys; main erythropoietic hormone
- Kd: 880 nM
